The source of these data is paper PMC11046700 (Proceedings of the National Academy of Sciences of the …, 2024).

The series deals with the molecule itself. In words: SEC. On the technique in general: Size exclusion chromatography separates by hydrodynamic size, large species first.

B1: mouse WT-APOA5 (mouse apolipoprotein AV with an N-terminal mouse albumin tag) (natural protein, UniProt Q8C7G5 21-368, looked up)
chain: RKSLWDYFSQNSWSKGVMGQPQKLAQENLKGSFEQDLYNMNNYLEKLGPLRGPGKEPPLLAQDPEGIRKQLQQELGEVSSRLEPYMAAKHQQVGWNLEGLRQQLKPYTAELMEQVGLSVQELQEQLRVVGEDTKAQLLGGVDEALNLLQDMQSRVLHHTDRVKELFHPYAERLVTGIGHHVQELHRSVAPHAAASPARLSRCVQTLSHKLTRKAKDLHTSIQRNLDQLRDELSAFIRVSTDGAEDGDSLDPQALSEEVRQRLQAFRHDTYLQIAAFTQAIDQETEEIQHQLAPPPPSHSAFAPELGHSDSNKALSRLQSRLDDLWEDIAYGLQDQGHSHLSDPEGHSG
Broadly, the stoichiometry N is the number of molecules, sites or subunits per partner or assembly. B1: the “stoichiometry N” value was found to be 2.
